Like-named read-outs stand apart in the source and are kept apart here.
Key:
[1] = target: T1, alkaline phosphatase (ALP) (Bos taurus, UniProt P19111); test: Enzymatic assay of 5 with alkaline phosphatase, aggregation followed by absorption spectroscopy; format: biochemical, bovine
T1 construct: Alkaline phosphatase from bovine intestinal mucosa was purchased from Sigma-Aldrich; purchased Sigma-Aldrich; host or cells: bovine intestinal mucosa (tissue-derived)
Method: The stock solution of 5 in DMSO was diluted with PBS to prepare sample solutions with different concentrations (0.10 μM, 0.20 μM, 0.50 μM, 1.0 μM, 2.0 μM, and 5.0 μM). Each sample was treated with 2 U/mL of alkaline phosphatase (ALP) and incubated overnight at 37° C. The absorption spectra across the range 300-700 nm, where the porphyrin absorbs strongly, were measured before and after the enzyme treatment for each sample (FIG. 4, panels A-F). For samples with concentration lower than 0.50 μM (FIG. 4, panels A, B), the intensity of the Soret band of 5 at 420 nm decreased after enzyme treatment, yet precipitation or other signs of aggregation were not observed. When the concentration of the sample was equal to or higher than 0.50 μM (FIG. 4, panels C-F), the intensity of the Soret peak at 420 nm decreased and a new peak appeared at 455 nm after the enzyme treatment. The new peak at 455 nm indicates the aggregation of the sample upon the treatment of ALP. The Q band (at ˜550 nm) also underwent a bathochromic shift and broadening, albeit of lesser magnitude than that of the higher-energy Soret band. Compound 5′, which lacks the two phosphoester moieties, is prone to aggregation in PBS, consistent with the observed results for ALP treatment of 5. The change in the color of the sample was also observed. After the overnight incubation, the color of the sample changed from pink to orange.
To confirm that the peak appeared after enzyme treatment was caused by aggregation, DMSO was added to the sample of 5 (5.0 μM in PBS) after enzyme treatment to disaggregate the sample. After adding DMSO to dilute the solution in half, the peak at 455 nm almost disappeared and the intensity of the peak at 420 nm increased. Color changes of the solution were observed during the treatment, with the solution appearing pink initially (indicating a monomeric state), then yellow after treatment with ALP (indicating aggregation), and finally returning to pink after dilution with DMSO, albeit a lighter pink than the initial solution, due to dilution (indicating disaggregation). The result further confirmed that compound 5 aggregates in aqueous solution after the enzyme treatment.
Enzymatic assay. The stock solution of 5 in DMSO (2 mM) was diluted with PBS to prepare sample solutions with different concentrations. The final concentrations of 5 in each sample were 0.20 μM, 0.50 μM, 1.0 μM, 2.0 μM, 5.0 μM and 10 μM, respectively. A solution of alkaline phosphatase from bovine intestinal mucosa (10 μL, 100 U/mL in PBS) was added to each sample solution to reach a final volume of 500 μL (PBS containing 0.5% DMSO). The reaction mixture was incubated overnight at 37° C. Then each sample was analyzed by absorption spectroscopy. Samples without the treatment of ALP were also analyzed to serve as controls.
To confirm the aggregation of the dephosphorylated 5 in PBS, 500 μL of DMSO was added to one of the treated samples (10 μM) and was then analyzed by absorption spectroscopy.

[2] = target: T1, alkaline phosphatase (ALP); test: Enzymatic cleavage of 5 by ALP monitored by reverse-phase HPLC; format: biochemical, bovine; details: 200 μM in PBS, 2 U/mL ALP, 37° C., 6-hour incubation
Method: The enzymatic cleavage was monitored with reverse-phase high performance liquid chromatography. A solution of 200 μM 5 in PBS was treated with 2 U/mL ALP and incubated at 37° C. A small part of sample was taken from the reaction at different time points (30 min, 1 h, 2 h, 4 h, 6 h and 8 h) and was analyzed by HPLC (5-95% MeCN/10 mM NH4HCO3 in H2O) (FIG. 7). The 3 peaks in the chromatograph after 30 min of ALP treatment represents compound 5 (peak 1), partially cleaved product (peak 2) and fully cleaved product (peak 3). The reaction almost completes after 6-hour incubation (>95% by integration). The LC trace of the standard dephosphorylated sample 5′ is shown for comparison. Attempts were made to get LC-MS data for 5 but no mass signal was detected. This might result from the poor solubility of 5 in the acidic mobile phase (MeCN/H2O, 0.1% FA).
Reverse phase high performance liquid chromatography. A solution of 200 μM 5 in PBS was treated with 2 U/mL ALP and incubated at 37° C. A small part of sample was taken from the reaction at different time points (30 min, 1 h, 2 h, 4 h, 6 h and 8 h) and was analyzed by RP-HPLC with an Agilent Zorbax SB-C18 column (5 μm, 4.6×150 mm). The sample was run for 15 min with a linear gradient (5-95% MeCN/10 mM NH4HCO3 in H2O) and detected with a diode-array detector at 420 nm.

[3] = system: alkaline phosphatase (ALP); details: 10 μM in PBS, 10 min at 10000 rpm
Method: Samples of 5 (10 μM in PBS) with or without ALP treatment were centrifuged with Amicon centrifugation devices (molecular cutoff 50 kDa). […] Solutions collected in the bottom or top tube for the sample that underwent enzyme treatment were analyzed with absorption spectroscopy (FIG. 5).

[4] = Absorption spectroscopy in PBS or DMSO (solubility / aggregation); format: physicochemical; details: PBS; absorption spectra 0.1-100 μM; read-out: soluble in PBS with essentially no aggregation or assembly
Method: Samples of 5′ at 1 μM in DMSO or PBS were analyzed by absorption spectroscopy (FIG. 8, panel A). […] In PBS, two broad peaks at 417 nm and 455 nm were observed, indicating aggregation of the sample at 1 μM. Samples of 4′ at 1 μM in DMSO or PBS were also analyzed for comparison (FIG. 8, panel B). The spectrum of the sample in DMSO was identical with 5′, while in PBS the Soret band spilt into 3 broad peaks at 409 nm, 419 nm and 455 nm. The different spectra between 4′ and 5′ might result from different ways of porphyrin stacking, as 4′ doesn't have the long PEG chain in its structure.
Samples of 0.1 μM, 1 μM, 10 μM and 100 μM were analyzed using cuvettes with a pathlength of 10 cm, 1 cm, 0.1 cm and 0.01 cm, respectively. There is only a very slight broadening of the absorption bands at 100 μM, and at all concentrations the general spectroscopic features characteristic of the porphyrin are retained.

[5] = Fluorescence spectroscopy of aggregation (intensity in PBS vs DMSO); format: physicochemical; details: 316 nM in PBS; incomplete aggregation
Method: Aggregation of 5′ at low concentrations was analyzed by fluorescence spectroscopy. The ratio of maximum fluorescence intensity of samples in PBS to that of sample in DMSO was plotted against concentration (FIG. 9). The ratio decreased as the concentration increased in the range of 1.0 nM to 316 nM, which implies that 5′ aggregates more in PBS as the concentration increases. Even with the concentration of 316 nM, the sample didn't aggregate completely in PBS and retained ˜30% fluorescence. The long PEG chain in 5′ provides the compound with good hydrophilicity and may contribute to incomplete aggregation. Fluorescence intensity at higher or lower concentrations was not measured due to the detection range of the instrument. The porphyrin-peptide conjugate without PEG chain, 4′, was examined by fluorescence intensity as well. Samples at 31.6 nM, 100 nM, and 316 nM were analyzed and the fluorescence intensity ratio of all samples was below 2%. The results imply that 4′ almost aggregates completely even at a very low concentration.
Fluorescence spectroscopy. Samples were dissolved in PBS and DMSO at different concentrations. The excitation wavelength was 419 nm for all samples in DMSO, 415 nm for 5′ in PBS, and 419 nm for 4′ in PBS. The intensity ratio was calculated with the maximum emission of each sample. […]

T1 sequence (P19111 20-506 limits assumed): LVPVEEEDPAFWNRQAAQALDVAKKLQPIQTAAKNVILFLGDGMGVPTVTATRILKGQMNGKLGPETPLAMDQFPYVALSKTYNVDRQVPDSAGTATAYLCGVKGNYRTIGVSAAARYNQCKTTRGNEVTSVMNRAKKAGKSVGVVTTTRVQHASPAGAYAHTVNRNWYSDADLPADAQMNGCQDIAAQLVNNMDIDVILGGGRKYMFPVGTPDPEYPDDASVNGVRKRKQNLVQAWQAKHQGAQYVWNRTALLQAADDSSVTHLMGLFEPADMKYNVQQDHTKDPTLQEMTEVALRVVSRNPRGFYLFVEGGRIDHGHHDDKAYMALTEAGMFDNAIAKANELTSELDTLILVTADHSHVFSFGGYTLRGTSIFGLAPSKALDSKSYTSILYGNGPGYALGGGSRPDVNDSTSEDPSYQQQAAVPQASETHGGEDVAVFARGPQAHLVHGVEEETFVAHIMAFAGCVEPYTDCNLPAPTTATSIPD

Molecule | behaviour of activated form at very low concentration ([1]; 0.1 μM) | concentration at which new peak at 455 nm (aggregation) appears after enzyme treatment ([1]; PBS with 0.5% DMSO, 2 U/mL ALP, overnight 37° C.) [nM] | reversibility of aggregation ([1]; after ALP treatment in PBS, upon addition of DMSO) | precipitation after high-speed centrifugation or long-time storage ([1]; after ALP treatment, centrifugation >10000 rpm or storage >1 month) | formation of microcrystals or precipitates upon ALP treatment ([1]; concentration as high as 200 μM) | completion of dephosphorylation reaction by HPLC integration [2] [%] | passage through 50 kDa membrane ([3]; after ALP treatment) | passage through 50 kDa membrane ([3]; without ALP treatment) | solubility [4] [µM] | fluorescence retained in PBS (relative to DMSO) [5] [%]
COCCOCCOCCOCCOCCOCCOCCOCCOCCOCCOCCOCCOCCOCCOCCOCCOCCOCCOCCOCCOCCOCCOCCOCCn1cc(-c2ccc(-c3c4nc(cc5ccc([nH]5)c(-c5c(OCc6cn(CCC(=O)NCC(=O)N[C@H](Cc7ccccc7)C(=O)N[C@H](Cc7ccccc7)C(=O)N[C@@H](Cc7ccc(OP(=O)(O)O)cc7)C(=O)O)nn6)cccc5OCc5cn(CCC(=O)NCC(=O)N[C@H](Cc6ccccc6)C(=O)N[C@H](Cc6ccccc6)C(=O)N[C@@H](Cc6ccc(OP(=O)(O)O)cc6)C(=O)O)nn5)c5nc(cc6ccc3[nH]6)C=C5)C=C4)cc2)nn1 [Compound 5, PEG24-GffY(p)-OH] | came out of solution without forming a gel superstructure | ≥ 500 | reversible | No precipitation or microcrystals were observed | did not form microcrystals or precipitates | > 95 | didn't pass through the membrane | passed through the 50 kDa membrane | ≥ 100 | 
PEG24-GffY-OH [Compound 5′] |  |  |  |  |  |  |  |  |  | ~30

From patent US20250009913A1, “COMPOUNDS FOR USE IN NON-COVALENT SCAFFOLD AND METHODS RELATED THERETO” (NORTH CAROLINA STATE UNIVERSITY, priority 2023, published 2025)
